{"source": "paper PMC6318002", "about": "(Nature, 2018)", "proteins": {"B1": {"name": "recombinant PKM2-C423/424A (enzyme)", "chain": "not shown"}}, "target": "the molecule itself", "assay": "cross-linking"}
{"protein": "B1", "values": [{"measurement": "stoichiometry N", "result": 4}]}
